In patent US20180155451A1 (published 2018) one finds He/Con_2b and Ho/Con_2b data, which are given here for 51 molecules.

Sequences and labels used below:
T1: FcγRIIb (human, UniProt P31994 43-217)
T1 construct: extracellular domain; also called 2b; FcgRIIb
T1 sequence (looked up): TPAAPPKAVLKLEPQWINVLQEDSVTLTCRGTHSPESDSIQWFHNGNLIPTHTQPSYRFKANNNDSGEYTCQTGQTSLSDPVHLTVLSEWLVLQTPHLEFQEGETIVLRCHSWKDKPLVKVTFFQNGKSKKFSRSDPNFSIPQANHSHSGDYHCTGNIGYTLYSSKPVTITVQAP

B1: GpH7-A5/GpH7-B3 variant G237_02A/GpL16-k0 (antibody, human IgG1, kappa)
heavy 1: not shown
heavy 2: not shown
light: DIVMTQSPLSLPVTPGEPASISCQASESLVHSNRNTYLHWYLQKPGQSPQLLIYKVSNRFSGVPDRFSGSGSGTDFTLKISRVEAEDVGVYYCSQNTHVPPTFGQGTKVEIERTVAAPSVFIFPPSDEQLKSGTASVVCLLNNFYPREAKVQWKVDNALQSGNSQESVTEQDSKDSTYSLSSTLTLSKADYEKHKVYACEVTHQGLSSPVTKSFNRGEC
notes: also called He Ab G237_02A
B2: GpH7-A5/GpH7-B3 variant A327_07I/GpL16-k0 (antibody, human IgG1, kappa)
heavy 1: not shown
heavy 2: not shown
light: B1 light
notes: also called He Ab A327_07I
B3: GpH7-B3 variant N325_06M/GpL16-k0 (antibody, human IgG1, kappa)
heavy: not shown
light: B1 light
notes: also called Ho Ab N325_06M
B4: GpH7-B3 variant P238_16H/GpL16-k0 (antibody, human IgG1, kappa)
heavy: not shown
light: B1 light
notes: also called Ho Ab P238_16H
B5: GpH7-B3 variant P238_04F/GpL16-k0 (antibody, human IgG1, kappa)
heavy: not shown
light: B1 light
notes: also called Ho Ab P238_04F
B6: GpH7-B3 variant T335_20W/GpL16-k0 (antibody, human IgG1, kappa)
heavy: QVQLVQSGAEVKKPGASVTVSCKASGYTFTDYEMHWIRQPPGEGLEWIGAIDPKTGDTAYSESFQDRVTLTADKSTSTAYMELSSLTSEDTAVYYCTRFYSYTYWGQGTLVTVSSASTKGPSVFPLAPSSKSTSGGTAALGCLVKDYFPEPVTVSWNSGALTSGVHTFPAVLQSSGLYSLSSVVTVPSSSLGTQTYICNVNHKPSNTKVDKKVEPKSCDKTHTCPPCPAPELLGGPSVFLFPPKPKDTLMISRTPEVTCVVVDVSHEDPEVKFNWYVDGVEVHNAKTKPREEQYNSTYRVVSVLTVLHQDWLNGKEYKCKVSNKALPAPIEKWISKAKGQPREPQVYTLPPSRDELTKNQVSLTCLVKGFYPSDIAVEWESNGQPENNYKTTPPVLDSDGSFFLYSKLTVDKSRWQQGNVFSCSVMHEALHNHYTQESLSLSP
light: B1 light
notes: also called Ho Ab T335_20W
B7: GpH7-B3 variant P331_20W/GpL16-k0 (antibody, human IgG1, kappa)
heavy: not shown
light: B1 light
notes: also called Ho Ab P331_20W
B8: GpH7-B3 variant S267_19Q/GpL16-k0 (antibody, human IgG1, kappa)
heavy: not shown
light: B1 light
notes: also called Ho Ab S267_19Q
B9: GpH7-B3 variant T335_15Y/GpL16-k0 (antibody, human IgG1, kappa)
heavy: not shown
light: B1 light
notes: also called Ho Ab T335_15Y
B10: GpH7-B3 variant S239_03V/GpL16-k0 (antibody, human IgG1, kappa)
heavy: not shown
light: B1 light
notes: also called Ho Ab S239_03V
B11: GpH7-B3 variant S267_01G/GpL16-k0 (antibody, human IgG1, kappa)
heavy: not shown
light: B1 light
notes: also called Ho Ab S267_01G
B12: GpH7-B3 variant P238_10E/GpL16-k0 (antibody, human IgG1, kappa)
heavy: not shown
light: B1 light
notes: also called Ho Ab P238_10E
B13: GpH7-B3 variant S337_15Y/GpL16-k0 (antibody, human IgG1, kappa)
heavy: not shown
light: B1 light
notes: also called Ho Ab S337_15Y
B14: GpH7-B3 variant S239_10E/GpL16-k0 (antibody, human IgG1, kappa)
heavy: not shown
light: B1 light
notes: also called Ho Ab S239_10E
B15: GpH7-B3 variant S239_05P/GpL16-k0 (antibody, human IgG1, kappa)
heavy: not shown
light: B1 light
notes: also called Ho Ab S239_05P
B16: GpH7-B3 variant P238_03V/GpL16-k0 (antibody, human IgG1, kappa)
heavy: not shown
light: B1 light
notes: also called Ho Ab P238_03V
B17: GpH7-B3 variant N325_07I/GpL16-k0 (antibody, human IgG1, kappa)
heavy: not shown
light: B1 light
notes: also called Ho Ab N325_07I
B18: GpH7-B3 variant Y296_20W/GpL16-k0 (antibody, human IgG1, kappa)
heavy: not shown
light: B1 light
notes: also called Ho Ab Y296_20W
B19: GpH7-B3 variant P238_19Q/GpL16-k0 (antibody, human IgG1, kappa)
heavy: not shown
light: B1 light
notes: also called Ho Ab P238_19Q
B20: GpH7-B3 variant T335_10E/GpL16-k0 (antibody, human IgG1, kappa)
heavy: not shown
light: B1 light
notes: also called Ho Ab T335_10E
B21: GpH7-B3 variant N325_13S/GpL16-k0 (antibody, human IgG1, kappa)
heavy: not shown
light: B1 light
notes: also called Ho Ab N325_13S
B22: GpH7-B3 variant S298_06M/GpL16-k0 (antibody, human IgG1, kappa)
heavy: not shown
light: B1 light
notes: also called Ho Ab S298_06M
B23: GpH7-B3 variant S337_20W/GpL16-k0 (antibody, human IgG1, kappa)
heavy: not shown
light: B1 light
notes: also called Ho Ab S337_20W
B24: GpH7-B3 variant P331_07I/GpL16-k0 (antibody, human IgG1, kappa)
heavy: not shown
light: B1 light
notes: also called Ho Ab P331_07I
B25: GpH7-B3 variant S324_06M/GpL16-k0 (antibody, human IgG1, kappa)
heavy: not shown
light: B1 light
notes: also called Ho Ab S324_06M
B26: GpH7-B3 variant S337_08L/GpL16-k0 (antibody, human IgG1, kappa)
heavy: not shown
light: B1 light
notes: also called Ho Ab S337_08L
B27: GpH7-B3 variant N325_08L/GpL16-k0 (antibody, human IgG1, kappa)
heavy: not shown
light: B1 light
notes: also called Ho Ab N325_08L
B28: GpH7-B3 variant S337_18N/GpL16-k0 (antibody, human IgG1, kappa)
heavy: not shown
light: B1 light
notes: also called Ho Ab S337_18N
B29: GpH7-B3 variant N325_09D/GpL16-k0 (antibody, human IgG1, kappa)
heavy: not shown
light: B1 light
notes: also called Ho Ab N325_09D
B30: GpH7-B3 variant P331_06M/GpL16-k0 (antibody, human IgG1, kappa)
heavy: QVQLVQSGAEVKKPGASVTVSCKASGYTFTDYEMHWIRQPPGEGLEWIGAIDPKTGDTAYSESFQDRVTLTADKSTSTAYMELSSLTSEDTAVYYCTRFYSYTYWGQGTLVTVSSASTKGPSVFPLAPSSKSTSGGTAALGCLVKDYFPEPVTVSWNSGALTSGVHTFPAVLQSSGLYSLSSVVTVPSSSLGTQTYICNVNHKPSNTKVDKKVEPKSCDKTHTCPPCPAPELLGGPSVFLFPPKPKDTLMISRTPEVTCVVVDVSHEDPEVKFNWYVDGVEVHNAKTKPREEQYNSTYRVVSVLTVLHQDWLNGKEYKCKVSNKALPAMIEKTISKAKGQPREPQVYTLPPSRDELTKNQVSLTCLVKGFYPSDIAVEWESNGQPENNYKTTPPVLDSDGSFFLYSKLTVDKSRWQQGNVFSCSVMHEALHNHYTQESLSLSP
light: B1 light
notes: also called Ho Ab P331_06M
B31: GpH7-B3 variant P331_10E/GpL16-k0 (antibody, human IgG1, kappa)
heavy: not shown
light: B1 light
notes: also called Ho Ab P331_10E
B32: GpH7-B3 variant P238_09D/GpL16-k0 (antibody, human IgG1, kappa)
heavy: not shown
light: B1 light
notes: also called Ho Ab P238_09D
B33: GpH7-B3 variant P271_09D/GpL16-k0 (antibody, human IgG1, kappa)
heavy: not shown
light: B1 light
notes: also called Ho Ab P271_09D
B34: GpH7-B3 variant P238_20W/GpL16-k0 (antibody, human IgG1, kappa)
heavy: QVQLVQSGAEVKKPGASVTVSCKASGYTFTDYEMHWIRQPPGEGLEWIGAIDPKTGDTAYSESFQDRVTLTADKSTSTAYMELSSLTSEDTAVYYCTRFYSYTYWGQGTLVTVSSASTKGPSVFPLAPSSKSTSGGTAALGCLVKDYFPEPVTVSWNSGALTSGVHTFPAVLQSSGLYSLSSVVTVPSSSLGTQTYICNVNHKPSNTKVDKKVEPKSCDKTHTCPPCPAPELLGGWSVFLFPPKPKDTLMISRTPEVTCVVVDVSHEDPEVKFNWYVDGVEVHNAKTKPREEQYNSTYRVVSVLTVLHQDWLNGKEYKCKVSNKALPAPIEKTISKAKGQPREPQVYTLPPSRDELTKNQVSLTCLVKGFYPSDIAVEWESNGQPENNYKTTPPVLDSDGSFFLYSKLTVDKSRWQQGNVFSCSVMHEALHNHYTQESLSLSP
light: B1 light
notes: also called Ho Ab P238_20W
B35: GpH7-B3 variant P331_15Y/GpL16-k0 (antibody, human IgG1, kappa)
heavy: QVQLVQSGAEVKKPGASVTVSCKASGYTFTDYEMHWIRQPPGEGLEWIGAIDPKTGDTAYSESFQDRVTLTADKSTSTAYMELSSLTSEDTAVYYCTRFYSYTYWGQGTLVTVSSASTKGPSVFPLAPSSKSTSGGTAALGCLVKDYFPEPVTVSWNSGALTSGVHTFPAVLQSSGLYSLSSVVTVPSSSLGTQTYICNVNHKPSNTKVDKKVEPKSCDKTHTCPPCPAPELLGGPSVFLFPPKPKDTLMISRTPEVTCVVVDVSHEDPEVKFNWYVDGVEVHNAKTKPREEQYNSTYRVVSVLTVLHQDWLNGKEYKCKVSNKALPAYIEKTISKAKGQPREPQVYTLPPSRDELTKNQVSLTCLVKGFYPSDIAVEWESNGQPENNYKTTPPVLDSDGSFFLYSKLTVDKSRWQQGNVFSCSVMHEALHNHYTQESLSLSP
light: B1 light
notes: also called Ho Ab P331_15Y
B36: GpH7-B3 variant T335_16H/GpL16-k0 (antibody, human IgG1, kappa)
heavy: not shown
light: B1 light
notes: also called Ho Ab T335_16H
B37: GpH7-B3 variant S267_06M/GpL16-k0 (antibody, human IgG1, kappa)
heavy: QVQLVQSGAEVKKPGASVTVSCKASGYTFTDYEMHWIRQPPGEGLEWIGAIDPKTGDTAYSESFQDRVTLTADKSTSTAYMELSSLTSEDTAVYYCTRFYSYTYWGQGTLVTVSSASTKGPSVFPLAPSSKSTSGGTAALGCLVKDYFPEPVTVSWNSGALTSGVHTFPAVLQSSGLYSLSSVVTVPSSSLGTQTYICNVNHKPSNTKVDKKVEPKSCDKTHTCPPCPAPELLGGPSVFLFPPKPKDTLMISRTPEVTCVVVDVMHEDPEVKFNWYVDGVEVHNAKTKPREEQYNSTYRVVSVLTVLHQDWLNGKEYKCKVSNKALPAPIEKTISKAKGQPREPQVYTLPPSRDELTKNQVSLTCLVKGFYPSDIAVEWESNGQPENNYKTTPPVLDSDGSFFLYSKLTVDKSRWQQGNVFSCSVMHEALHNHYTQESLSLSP
light: B1 light
notes: also called Ho Ab S267_06M
B38: GpH7-B3 variant S337_07I/GpL16-k0 (antibody, human IgG1, kappa)
heavy: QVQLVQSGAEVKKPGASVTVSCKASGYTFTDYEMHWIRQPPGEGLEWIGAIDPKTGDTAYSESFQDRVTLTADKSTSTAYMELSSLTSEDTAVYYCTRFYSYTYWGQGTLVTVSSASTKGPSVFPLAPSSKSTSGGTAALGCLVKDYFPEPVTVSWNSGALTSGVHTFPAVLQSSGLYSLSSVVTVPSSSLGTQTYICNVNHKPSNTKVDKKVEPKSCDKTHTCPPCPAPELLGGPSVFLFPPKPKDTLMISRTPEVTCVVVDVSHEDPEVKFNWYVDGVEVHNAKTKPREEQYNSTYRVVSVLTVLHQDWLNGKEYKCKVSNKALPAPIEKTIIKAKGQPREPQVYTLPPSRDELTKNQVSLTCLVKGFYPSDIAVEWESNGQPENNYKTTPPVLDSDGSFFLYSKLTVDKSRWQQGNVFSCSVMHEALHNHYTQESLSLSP
light: B1 light
notes: also called Ho Ab S337_07I
B39: GpH7-B3 variant P331_16H/GpL16-k0 (antibody, human IgG1, kappa)
heavy: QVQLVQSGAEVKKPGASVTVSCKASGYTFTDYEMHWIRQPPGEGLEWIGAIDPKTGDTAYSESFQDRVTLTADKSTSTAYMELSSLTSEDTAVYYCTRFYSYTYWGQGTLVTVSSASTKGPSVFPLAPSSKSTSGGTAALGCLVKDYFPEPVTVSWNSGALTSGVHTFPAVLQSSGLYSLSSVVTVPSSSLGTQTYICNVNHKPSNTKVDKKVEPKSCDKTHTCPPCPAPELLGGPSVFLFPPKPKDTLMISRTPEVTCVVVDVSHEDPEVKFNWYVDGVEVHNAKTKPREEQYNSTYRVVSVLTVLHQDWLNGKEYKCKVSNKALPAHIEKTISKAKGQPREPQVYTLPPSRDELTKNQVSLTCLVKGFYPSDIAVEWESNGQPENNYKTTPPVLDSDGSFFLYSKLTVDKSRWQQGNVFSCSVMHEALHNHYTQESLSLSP
light: B1 light
notes: also called Ho Ab P331_16H
B40: GpH7-B3 variant P238_06M/GpL16-k0 (antibody, human IgG1, kappa)
heavy: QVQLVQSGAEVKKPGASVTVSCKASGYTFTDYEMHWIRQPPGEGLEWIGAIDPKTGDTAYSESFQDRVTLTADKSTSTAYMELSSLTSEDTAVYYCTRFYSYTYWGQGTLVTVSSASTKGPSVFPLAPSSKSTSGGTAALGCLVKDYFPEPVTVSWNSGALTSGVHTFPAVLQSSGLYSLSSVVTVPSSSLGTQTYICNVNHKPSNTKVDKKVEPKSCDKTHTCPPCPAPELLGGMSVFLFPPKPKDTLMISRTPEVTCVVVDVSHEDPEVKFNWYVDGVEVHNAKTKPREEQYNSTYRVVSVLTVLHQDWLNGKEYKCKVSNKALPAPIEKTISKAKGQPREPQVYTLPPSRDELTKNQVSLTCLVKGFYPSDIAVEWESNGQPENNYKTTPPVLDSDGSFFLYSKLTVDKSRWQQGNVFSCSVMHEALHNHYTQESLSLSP
light: B1 light
notes: also called Ho Ab P238_06M
B41: GpH7-B3 variant T335_19Q/GpL16-k0 (antibody, human IgG1, kappa)
heavy: not shown
light: B1 light
notes: also called Ho Ab T335_19Q
B42: GpH7-B3 variant S337_16H/GpL16-k0 (antibody, human IgG1, kappa)
heavy: not shown
light: B1 light
notes: also called Ho Ab S337_16H
B43: GpH7-B3 variant P331_03V/GpL16-k0 (antibody, human IgG1, kappa)
heavy: not shown
light: B1 light
notes: also called Ho Ab P331_03V
B44: GpH7-B3 variant P271_10E/GpL16-k0 (antibody, human IgG1, kappa)
heavy: not shown
light: B1 light
notes: also called Ho Ab P271_10E
B45: GpH7-B3 variant V266_06M/GpL16-k0 (antibody, human IgG1, kappa)
heavy: not shown
light: B1 light
notes: also called Ho Ab V266_06M
B46: GpH7-B3 variant T335_18N/GpL16-k0 (antibody, human IgG1, kappa)
heavy: not shown
light: B1 light
notes: also called Ho Ab T335_18N
B47: GpH7-B3 variant T335_13S/GpL16-k0 (antibody, human IgG1, kappa)
heavy: not shown
light: B1 light
notes: also called Ho Ab T335_13S
B48: GpH7-B3 variant S239_06M/GpL16-k0 (antibody, human IgG1, kappa)
heavy: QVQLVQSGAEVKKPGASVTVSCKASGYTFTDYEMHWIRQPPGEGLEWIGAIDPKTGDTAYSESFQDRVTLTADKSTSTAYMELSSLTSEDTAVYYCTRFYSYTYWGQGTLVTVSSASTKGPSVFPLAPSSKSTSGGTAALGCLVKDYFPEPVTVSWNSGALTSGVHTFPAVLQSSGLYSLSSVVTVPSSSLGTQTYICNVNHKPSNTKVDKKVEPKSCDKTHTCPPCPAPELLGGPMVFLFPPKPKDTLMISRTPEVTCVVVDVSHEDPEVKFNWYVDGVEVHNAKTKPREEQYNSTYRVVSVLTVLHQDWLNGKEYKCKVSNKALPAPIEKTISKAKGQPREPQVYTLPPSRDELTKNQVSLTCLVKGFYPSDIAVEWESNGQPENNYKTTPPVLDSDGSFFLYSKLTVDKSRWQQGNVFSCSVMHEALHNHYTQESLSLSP
light: B1 light
notes: also called Ho Ab S239_06M
B49: GpH7-B3 variant N325_20W/GpL16-k0 (antibody, human IgG1, kappa)
heavy: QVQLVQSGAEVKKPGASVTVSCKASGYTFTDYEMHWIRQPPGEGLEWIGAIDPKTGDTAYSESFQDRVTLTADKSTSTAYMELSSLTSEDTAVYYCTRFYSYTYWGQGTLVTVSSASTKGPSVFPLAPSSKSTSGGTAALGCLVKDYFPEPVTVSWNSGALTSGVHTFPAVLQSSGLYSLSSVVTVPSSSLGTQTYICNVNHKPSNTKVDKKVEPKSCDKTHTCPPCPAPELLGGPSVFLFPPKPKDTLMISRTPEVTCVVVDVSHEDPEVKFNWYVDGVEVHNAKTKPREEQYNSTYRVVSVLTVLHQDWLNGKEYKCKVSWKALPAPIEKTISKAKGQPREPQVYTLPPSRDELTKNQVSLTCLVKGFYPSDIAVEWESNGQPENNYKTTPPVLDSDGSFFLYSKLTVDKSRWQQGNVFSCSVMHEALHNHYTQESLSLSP
light: B1 light
notes: also called Ho Ab N325_20W
B50: GpH7-B3 variant T335_07I/GpL16-k0 (antibody, human IgG1, kappa)
heavy: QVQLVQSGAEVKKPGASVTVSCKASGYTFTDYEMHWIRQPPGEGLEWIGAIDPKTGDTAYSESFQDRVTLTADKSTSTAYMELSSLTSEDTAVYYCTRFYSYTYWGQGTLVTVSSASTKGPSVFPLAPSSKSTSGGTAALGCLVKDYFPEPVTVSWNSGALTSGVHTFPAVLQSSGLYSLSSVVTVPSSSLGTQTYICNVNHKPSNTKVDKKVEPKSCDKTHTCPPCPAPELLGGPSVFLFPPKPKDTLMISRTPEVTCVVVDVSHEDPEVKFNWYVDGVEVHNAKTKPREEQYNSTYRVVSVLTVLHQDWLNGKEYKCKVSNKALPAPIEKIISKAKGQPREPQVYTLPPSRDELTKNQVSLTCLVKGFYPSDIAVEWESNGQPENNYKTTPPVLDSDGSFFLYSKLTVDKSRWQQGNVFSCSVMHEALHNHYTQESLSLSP
light: B1 light
notes: also called Ho Ab T335_07I
B51: GpH7-B3 variant P238_15Y/GpL16-k0 (antibody, human IgG1, kappa)
heavy: not shown
light: B1 light
notes: also called Ho Ab P238_15Y

One assay deals with T1, FcγRIIb. Put plainly: SPR (Biacore), binding relative to GpH7-A5/GpH7-B3/GpL16-k0 = 100. The method, then: (§1) Analysis of interaction between objective antibody and the FcγR was carried out using Biacore T100 (GE Healthcare). HBS-EP+ (GE Healthcare) was used as the running buffer, and the measurement temperature was set to 25° C. Chips produced by immobilizing the antigen peptide by the amine coupling method to a Series S Sencor Chip CM5 (GE Healthcare), or alternatively, chips produced by allowing preliminarily biotinylated antigen peptides to interact with and immobilize onto a Series S Sensor Chip SA (certified) (GE Healthcare) were used. Antibodies of interest were captured onto an antigen peptide-immobilized chip, and allowed to interact to each FcγR diluted with running buffer. To regenerate and repeatedly use the chip, the antibodies captured on the chip were washed off by reacting 10 mM glycine-HCl, pH 1.5.
(§2) The FcγR-binding activity of each antibody was assessed primarily using as an indicator the FcγR-binding activity and dissociation constant for FcγR.
Consider B1, for which the He/Con_2b is 124 % of control.

Regarding B2, the He/Con_2b is 127 % of control.

The target of another assay is T1, FcγRIIb. In words: SPR (Biacore), binding relative to GpH7-B3/GpL16-k0 = 100. On the procedure: as §1, §2
On the technique in general: Surface plasmon resonance follows binding to a sensor surface in real time, without labels.
For the molecule B3, the Ho/Con_2b was 159 % of control.

B4: the Ho/Con_2b is 18.8 % of control.

On to B5, for which the Ho/Con_2b was 209 % of control.

Take B6: the Ho/Con_2b is 94.4 % of control.

As to B7, the Ho/Con_2b was 111 % of control.

As for B8, the Ho/Con_2b is 185 % of control.

As to B9, the Ho/Con_2b is 104 % of control.

For the molecule B10, the Ho/Con_2b was 108 % of control.

In the case of B11, the Ho/Con_2b was 97 % of control.

As for B12, the Ho/Con_2b is 97.9 % of control.

With B13, the Ho/Con_2b was 93.4 % of control.

For B14, the Ho/Con_2b was 175 % of control.

In the case of B15, the Ho/Con_2b was 61 % of control.

In the case of B16, the Ho/Con_2b is 96.6 % of control.

With B17, the Ho/Con_2b was 88.2 % of control.

As to B18, the Ho/Con_2b is 103 % of control.

Regarding B19, the Ho/Con_2b was 42.7 % of control.

Regarding B20, the Ho/Con_2b is 108 % of control.

Turning to B21, the Ho/Con_2b is 159 % of control.

Regarding B22, the Ho/Con_2b is 101 % of control.

Consider B23, for which the Ho/Con_2b is 99.6 % of control.

For the molecule B24, the Ho/Con_2b is 63.3 % of control.

Regarding B25, the Ho/Con_2b was 104 % of control.

For B26, the Ho/Con_2b was 90.7 % of control.

As to B27, the Ho/Con_2b is 106 % of control.

B28: the Ho/Con_2b was 98 % of control.

B29: the Ho/Con_2b was 77 % of control.

On to B30, for which the Ho/Con_2b is 71.5 % of control.

With B31, the Ho/Con_2b was 92.3 % of control.

Regarding B32, the Ho/Con_2b is 207 % of control.

With B33, the Ho/Con_2b is 100 % of control.

As to B34, the Ho/Con_2b was 12.6 % of control.

As for B35, the Ho/Con_2b was 111 % of control.

In the case of B36, the Ho/Con_2b is 97.2 % of control.

Consider B37, for which the Ho/Con_2b was 187 % of control.

In the case of B38, the Ho/Con_2b is 96.6 % of control.

Consider B39, for which the Ho/Con_2b was 100 % of control.

With B40, the Ho/Con_2b is 97.1 % of control.

As to B41, the Ho/Con_2b is 97.3 % of control.

B42: the Ho/Con_2b was 103 % of control.

Take B43: the Ho/Con_2b is 86.6 % of control.

In the case of B44, the Ho/Con_2b was 95 % of control.

In the case of B45, the Ho/Con_2b is 231 % of control.

Regarding B46, the Ho/Con_2b is 96.1 % of control.

As for B47, the Ho/Con_2b is 95.2 % of control.

Consider B48, for which the Ho/Con_2b was 84.3 % of control.

Take B49: the Ho/Con_2b was 44 % of control.

Take B50: the Ho/Con_2b was 104 % of control.

Turning to B51, the Ho/Con_2b was 114 % of control.
